Numbering of substitutions follows the chain as printed.

The target in test [1] is IGF-I receptor (IGF-IR) on tumor cells (HT29, NCI H322M) or on 3T3 cells transfected with IGF-IR (human) (UniProt P08069). In words: cell-based or functional assay.
Test [2] deals with T1, IGF-IR extracellular domain (human, UniProt P08069 31-935).
T1 construct: extracellular domain; also called IGF-1R; insulin-like growth factor I receptor
In words: SPR (BIACORE 3000); antibody captured by anti-human Fcγ antibody, IGF-IR extracellular domain in solution. (In general: Surface plasmon resonance follows binding to a sensor surface in real time, without labels.)

Test [3] addresses T2, IGF-I receptor (IGF-IR) on tumor cells (HT29, NCI H322M) or on 3T3 cells transfected with IGF-IR (human, UniProt P08069 31-736; P08069 741-1367, Natural receptor on cells: glycosylated, disulfide-linked alpha2-beta2 heterotetramer. One alpha and one beta chain are given.).
T2 construct: also called IGF-1R
Description: displacement of I^125-labeled IGF-I from human tumor cells expressing IGF-IR (HT29, NCI H322M), scintillation counting.

In test [1], αIR3 (antibody) yielded an Akt/PKB phosphorylation without IGF-I ligand (Western blot) above 5 nM.

B1: <IGF-1R>HUMAB Clone 18 (antibody 18) (antibody, V domains shown)
VH: QVELVESGGGVVQPGRSQRLSCAASGFTFSSYGMHWVRQAPGKGLEWVAIIWFDGSSTYYADSVRGRFTISRDNSKNTLYLQMNSLRAEDTAVYFCARELGRRYFDLWGRGTLVSVSS
VL: EIVLTQSPATLSLSPGERATLSCRASQSVSSYLAWYQQKPGQAPRLLIYDASKRATGIPARFSGSGSGTDFTLTISSLEPEDFAVYYCQQRSKWPPWTFGQGTKVESK
A word on the Kd: it is the equilibrium constant for the complex coming apart. A high value points to a looser complex. As a reminder, the koff is the first-order rate constant of dissociation. The term kon denotes the second-order rate constant of association. A low value points to slower complex formation. Usually IC50 stands for the point on the concentration scale where inhibition reaches its midpoint. In test [2], B1 yielded a Kd of 0.695 pM, an off-rate constant (koff) of 1.03e-07 s⁻¹ and a kon of 149000 M⁻¹ s⁻¹. In test [3], this molecule gave an IC50 of 300 pM.

B2: <IGF-1R>HUMAB Clone 22 (antibody 22) (antibody, V domains shown)
VH: VQLVESGGGVVQPGRSLRLSCAASGFTFSSYGMHWVRQAPGKGLEWMAIIWFDGSSKYYGDSVKGRFTISRDNSKNTLYLQMNSLRADDTAVYYCARELGRRYFDLWGRGTLVTVSS
VL: B1 VL with K53N, S107I
In test [2], B2 registered a dissociation constant (Kd) of 656 pM, a koff of 9.64e-05 s⁻¹ and a kon of 147000 M⁻¹ s⁻¹.
